{"source": "the supplement of paper PMC12042874", "note": "± gives the uncertainty stated by the source.", "data": [{"test": "amyloid nucleation score (Sup35N fusion, yeast selection) (log enrichment); library NNK2; higher = more nucleation; inactive = no reads after selection", "outline": "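Yeast lacking psi expressed peptides of 20 random codons fused to Sup35N, received 100 μM copper sulfate for 24 hours, and were then grown for 7 days at 30°C on medium lacking adenine and uracil. Illumina sequencing of input and output plasmid inserts provided the reads. Nucleation scores are DiMSum log enrichments of output over input, centred on the mode of non-aggregating sequences. Any sequence with under 100 input reads was excluded.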", "values": [{"substance": "DSVFNMTIADECFG", "amyloid nucleation score": "-1.06 ± 1.1"}, {"substance": "DTCYVTTYVWWKTLCPVGLV", "amyloid nucleation score": "1.72 ± 0.31"}, {"substance": "DTGNPVVWKRTVNCLSQVLW", "amyloid nucleation score": "0.368 ± 0.62"}, {"substance": "DTGRFVMLVVGR", "amyloid nucleation score": "0.304 ± 0.54"}, {"substance": "DTQGIR", "amyloid nucleation score": "-0.212 ± 0.65"}, {"substance": "DTSSYKTYDRLHQLYRNELR", "amyloid nucleation score": "0.709 ± 0.23"}, {"substance": "DTSVMCFGTYTWLFELFFQW", "amyloid nucleation score": "-0.334 ± 0.45"}, {"substance": "DTVNWCDSGVP", "amyloid nucleation score": "-0.023 ± 0.65"}, {"substance": "DVDFRSMCEGTFSLNDQPNR", "amyloid nucleation score": "-0.825 ± 0.78"}, {"substance": "DVEHPLYWPEDVLKASSETV", "amyloid nucleation score": "1.91 ± 0.12"}, {"substance": "DVFVRSRGKGRFMGSRDNWA", "amyloid nucleation score": "0.76 ± 0.4"}, {"substance": "DVHRWKIWQASG", "amyloid nucleation score": "0.901 ± 0.26"}, {"substance": "DVLALFYSYCALN", "amyloid nucleation score": "0.049 ± 1.1"}, {"substance": "DVLCS", "amyloid nucleation score": "0.626 ± 0.57"}, {"substance": "DVLIRKWIIWDASNLQWMAI", "amyloid nucleation score": "0.144 ± 0.36"}, {"substance": "DVSSPVPGRGQCCVDGCWEF", "amyloid nucleation score": "6.153 ± 0.059"}, {"substance": "DVVFFVSYW", "amyloid nucleation score": "3.86 ± 0.098"}, {"substance": "DVVILMF", "amyloid nucleation score": "0.639 ± 0.5"}, {"substance": "DWCPTCIWRICSHVTQSWSS", "amyloid nucleation score": "6.325 ± 0.055"}, {"substance": "DWQCRGLQYQWFGGVWDANV", "amyloid nucleation score": "-0.882 ± 0.64"}, {"substance": "EAHGSWL", "amyloid nucleation score": "0.764 ± 0.38"}, {"substance": "EALKVWERLCRLCSFWSYRK", "amyloid nucleation score": "7.871 ± 0.039"}, {"substance": "EAYLDCYRLLFWFLFM", "amyloid nucleation score": "inactive"}, {"substance": "ECSGEHASVQVSTGLGTDVQ", "amyloid nucleation score": "2.8 ± 0.065"}, {"substance": "EEMYRSIARNVVVLNRYCES", "amyloid nucleation score": "-0.468 ± 0.26"}, {"substance": "EEYCSFKLVHMGRGPAGHSI", "amyloid nucleation score": "2.58 ± 0.11"}, {"substance": "EFCMEDQSMSLLWDYY", "amyloid nucleation score": "-0.183 ± 1"}, {"substance": "EFFFRLMTDPTN", "amyloid nucleation score": "-0.376 ± 0.63"}, {"substance": "EFFISVSLNWCKTDCYTDPW", "amyloid nucleation score": "-0.407 ± 0.2"}, {"substance": "EFGDQLSDYNWIVCMLGTYI", "amyloid nucleation score": "-0.904 ± 1.1"}, {"substance": "EFIAISLSFVPLYRVVSGSG", "amyloid nucleation score": "-0.674 ± 0.79"}, {"substance": "EFLLNMAYSSGGSWTEVFRV", "amyloid nucleation score": "-0.005 ± 0.63"}, {"substance": "EFMYGKTARGWFLALTARIF", "amyloid nucleation score": "inactive"}, {"substance": "EFNCYGWKRRKRRCWGGKCR", "amyloid nucleation score": "0.726 ± 0.41"}, {"substance": "EFRGWNI", "amyloid nucleation score": "-0.587 ± 0.79"}, {"substance": "EFWPKELIRSDDSASFNGMS", "amyloid nucleation score": "0.007 ± 1.1"}, {"substance": "EFYFSVRPVKLCFGLNVTNN", "amyloid nucleation score": "-0.146 ± 1"}, {"substance": "EFYPTHDFVQRDRRVTRLRI", "amyloid nucleation score": "0.524 ± 0.81"}, {"substance": "EGFMSFPTN", "amyloid nucleation score": "inactive"}, {"substance": "EGNYFSGIS", "amyloid nucleation score": "-1.2 ± 0.48"}, {"substance": "EGVVSVRVFKYTGSYG", "amyloid nucleation score": "0.599 ± 0.8"}, {"substance": "EGWTWGGRLNKAQILTECVL", "amyloid nucleation score": "1.49 ± 0.38"}, {"substance": "EIDQSYVNTSSQQTSIYV", "amyloid nucleation score": "inactive"}, {"substance": "EIHCPMITMISVGRDSMKFN", "amyloid nucleation score": "0.996 ± 0.41"}, {"substance": "EINGY", "amyloid nucleation score": "-0.418 ± 1"}, {"substance": "EKLRNQFKP", "amyloid nucleation score": "-0.569 ± 1.1"}, {"substance": "ELQGYSNCGLEIGGTCHRGY", "amyloid nucleation score": "-0.302 ± 0.61"}, {"substance": "ELRPIHIFKFFT", "amyloid nucleation score": "-0.253 ± 0.4"}, {"substance": "ELSLTCNGDQLIGMKGGADK", "amyloid nucleation score": "0.008 ± 0.38"}, {"substance": "EMDNGDSGTVW", "amyloid nucleation score": "-0.186 ± 0.76"}, {"substance": "EMNFKALLKGVNGFVWDGVF", "amyloid nucleation score": "1.43 ± 0.21"}, {"substance": "ENFRGTFKIRRRCCL", "amyloid nucleation score": "-0.251 ± 0.76"}, {"substance": "ENGIICR", "amyloid nucleation score": "0.088 ± 0.49"}, {"substance": "ENHQCGWGLPLCTVVSR", "amyloid nucleation score": "6 ± 0.077"}, {"substance": "ENKPTRDLYSTTR", "amyloid nucleation score": "-1.19 ± 0.54"}, {"substance": "ENVCCGVGSVYKSMLAAPPW", "amyloid nucleation score": "10.23 ± 0.056"}, {"substance": "EPGMKSRSNYMHGTKGEHHR", "amyloid nucleation score": "-0.131 ± 0.45"}, {"substance": "EQHIDSAMENFSDHDIVMLG", "amyloid nucleation score": "4.76 ± 0.064"}, {"substance": "ERHNAELRHPAQYLEFTTLG", "amyloid nucleation score": "1.38 ± 0.37"}, {"substance": "ERSCSDIAGYPRPHGVQRNA", "amyloid nucleation score": "3.01 ± 0.081"}, {"substance": "ESDSWNVVITDM", "amyloid nucleation score": "-0.371 ± 0.64"}, {"substance": "ESFVRVLSFFCVSWYGSMVR", "amyloid nucleation score": "1.75 ± 0.24"}, {"substance": "ESIYLVGICGSSG", "amyloid nucleation score": "0.247 ± 1"}, {"substance": "ETAQLWYSRVACCKKRVVYG", "amyloid nucleation score": "0.594 ± 0.47"}, {"substance": "ETKWPDHYK", "amyloid nucleation score": "0.515 ± 0.64"}, {"substance": "ETSMYVYLGI", "amyloid nucleation score": "-0.384 ± 0.35"}, {"substance": "ETVGYN", "amyloid nucleation score": "0.284 ± 1.1"}, {"substance": "EVANGKFCNFGSLYDLMWWE", "amyloid nucleation score": "-0.348 ± 0.76"}, {"substance": "EVCMWIPHTAVRLYQS", "amyloid nucleation score": "1.15 ± 0.23"}, {"substance": "EVEWAFTYHISL", "amyloid nucleation score": "-0.095 ± 0.39"}, {"substance": "EVGVEGEIF", "amyloid nucleation score": "-0.56 ± 0.4"}, {"substance": "EVHHNGM", "amyloid nucleation score": "0.367 ± 0.62"}, {"substance": "EVILTLIRYNV", "amyloid nucleation score": "4.21 ± 0.1"}, {"substance": "EVLGLV", "amyloid nucleation score": "-0.841 ± 0.64"}, {"substance": "EVRRCGEEFGNGARMRWMGV", "amyloid nucleation score": "0.923 ± 0.28"}, {"substance": "EWLAVYVYLHQDGLNNFRS", "amyloid nucleation score": "-0.784 ± 0.4"}, {"substance": "EWLIAW", "amyloid nucleation score": "1.29 ± 0.25"}, {"substance": "EWSVWRSAKWQFQARNGMQG", "amyloid nucleation score": "2.05 ± 0.48"}, {"substance": "EYHFCTWFRVDIPFVFHDVV", "amyloid nucleation score": "-0.072 ± 1.1"}, {"substance": "EYIYTIGYGL", "amyloid nucleation score": "inactive"}, {"substance": "EYMYYGFYCHYGSSVLAF", "amyloid nucleation score": "-0.731 ± 0.56"}, {"substance": "FACRWFQSWSLRYLFPELTL", "amyloid nucleation score": "-0.238 ± 0.5"}, {"substance": "FAFWGVSI", "amyloid nucleation score": "0.332 ± 0.24"}, {"substance": "FAGNAHGRRTG", "amyloid nucleation score": "1.3 ± 0.31"}, {"substance": "FAKFQGSKISPVSHTSLLST", "amyloid nucleation score": "inactive"}, {"substance": "FALHGEDWSNSTISRNFWSR", "amyloid nucleation score": "-0.031 ± 0.35"}]}]}
